By Km is commonly meant the substrate concentration at which the rate is half of its maximum. One may read the kcat as the maximal rate divided by the concentration of active sites. In general, stoichiometry N refers to the number of molecules, sites or subunits per partner or assembly.

This is an account of results in article PMC6215446, “High-level expression and molecular characterization of a recombinant prolidase from Escherichia coli NovaBlue” (PeerJ, 2018).

Data set [1] has as its system C[C@H](N)C(=O)N1CCC[C@H]1C(=O)O. The data set can be described thus: proline release, ninhydrin colorimetric assay; Lineweaver-Burk. It is filed as biochemical, Escherichia coli. As to conditions: 0.1 mM Mn2+, 25 mM Tris-HCl pH 8.0, 60 °C, 10 min, substrate 0.2-14.2 mM.
Data set [2] deals with the molecule itself. As to the kind of experiment: SEC; gel filtration on Superdex 200 HiLoad 16/60, 25 mM Tris-HCl buffer (pH 8.0) with 10 mM Mg(OAc)2 and 2 mM DTT; calibrated with thyroglobulin, aldolase, ovalbumin, ribonuclease A; apparent molecular mass of the native form. Background: In gel filtration, larger molecules generally elute earlier.

Regarding EcPepQ (Escherichia coli K-12), in data set [1], the Km came to 8.8 ± 1.1 mM and the kcat was 926.5 ± 2.0 s⁻¹.

B1: Escherichia coli NovaBlue prolidase (EcPepQ), His6-tagged (enzyme, UniProt P21165 1-443, looked up)
chain: MESLASLYKNHIATLQERTRDALARFKLDALLIHSGELFNVFLDDHPYPFKVNPQFKAWVPVTQVPNCWLLVDGVNKPKLWFYLPVDYWHNVEPLPTSFWTEDVEVIALPKADGIGSLLPAARGNIGYIGPVPERALQLGIEASNINPKGVIDYLHYYRSFKTEYELACMREAQKMAVNGHRAAEEAFRSGMSEFDINIAYLTATGHRDTDVPYSNIVALNEHAAVLHYTKLDHQAPEEMRSFLLDAGAEYNGYAADLTRTWSAKSDNDYAQLVKDVNDEQLALIATMKAGVSYVDYHIQFHQRIAKLLRKHQIITDMSEEAMVENDLTGPFMPHGIGHPLGLQVHDVAGFMQDDSGTHLAAPAKYPYLRCTRILQPGMVLTIEPGIYFIESLLAPWREGQFSKHFNWQKIEALKPFGGIRIEDNVVIHENNVENMTRDLKLA
notes: Prolidase (Xaa-Pro dipeptidase) PepQ of E. coli NovaBlue; residue number of 443 printed; Cloned BamHI/HindIII into pQE-30; also called Xaa-Pro dipeptidase; recombinant enzyme; source: E. coli M15 (pQE-EcPepQ), IPTG-induced, purified (Ni-NTA); not shown: His6, N-terminal, kept
As for B1, the “stoichiometry N” value in data set [2] came out at 2.
